In the supplement of paper PMC10567573 one finds protein stability index data, which are given here for 72 sequences.

The data set in a line: protein stability index of a GFP-peptide fusion (GPS, HEK-293T) (PSI 1-6); higher = more stable.
[1] abbreviates: treatment: DMSO, c terminus: a fixed tail appended.
Where [2] appears, read: treatment: MLN4924 1 uM, 8 h, c terminus: a fixed tail appended.

± gives the standard deviation.
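Note: 24-mer peptide tiles fused after GFP, lentivirally expressed, FACS-sorted into six equal bins by GFP/DsRed ratio, decoded by Illumina sequencing, PSI is the read-weighted mean bin number.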

Consider LLLGAGESGKSTIVKQMKIIHEAG [GNAI1], for which the protein stability index runs as follows: under setting [1], 2.51 ± 0.47; under setting [2], 2.54 ± 0.65.
In turn, LLMLENFIDGKFLPCSSYIDSYDP [ALDH8A1] showed a protein stability index under setting [1] of 1.97 ± 0.65 and a protein stability index under setting [2] of 2.05 ± 0.56.
LLPLTELSVCPLEGSREHAFQITG [PLEKHN1]: the protein stability index by setting is: under setting [1], 2.88 ± 0.13; under setting [2], 2.83 ± 0.24.
Turning to LLPPGEPPLLGTFPRDHTSLALVQ [ANKRD40], the protein stability index is 3.48 ± 0.096 under setting [1] and 3.39 ± 0.31 under setting [2].
Consider LLSRINKDWLEGTVRGATGIFPLS [NCF4], for which the protein stability index runs as follows: under setting [1], 2.17 ± 0.47; under setting [2], 2.51 ± 0.74.
In the same order, the values of LLSSGFEIDTPDKFGRTCLHAAAA [ANKRD44] are 2.95 ± 0.39 and 2.95 ± 0.035.
Regarding LMDIVPADDHRYKFADNKWSVTGK [TBX5], the protein stability index by setting is: under setting [1], 3.63 ± 0.29; under setting [2], 3.54 ± 0.15.
As for LMDVTGGPFDLMSRRVIAANNRIL [IMPA1], the protein stability index under setting [1] is 2.75 ± 0.17 and the protein stability index under setting [2] came out at 2.69 ± 0.2.
On to LMYPSYTFSGDVQLAQDDIDGIQA [MMP1], for which the protein stability index by setting is: under setting [1], 4.1 ± 0.15; under setting [2], 4.25 ± 0.25.
For the sequence LNVELDPEIQKVRAQEREQIKALN [KRT71], the protein stability index under setting [1] was 4.74 ± 0.13 and the protein stability index under setting [2] was found to be 4.75 ± 0.11.
Taken in the same sequence, the figures for LPGAVATIVKPLSAIPQPTITKQE [HNF4A] were 4.51 ± 0.24 and 4.54 ± 0.17.
Consider LPLAYQQTSAFARQPRDELERVRV [TMEM175], for which the protein stability index under setting [1] turned out to be 4.01 ± 0.35 and the protein stability index under setting [2] was determined as 4.1 ± 0.27.
As for LPPGFVLKKDKKKEEKEDEISLED [ZC3H15], the protein stability index under setting [1] was determined as 5.54 ± 0.46 and the protein stability index under setting [2] was determined as 5.45 ± 0.36.
As for LPRHQDQPHHQPPNRAGAPGESLE [TRAF3IP2], the protein stability index is, setting by setting: under setting [1], 5.51 ± 0.2; under setting [2], 5.43 ± 0.095.
For LPTVGGQLGTAGQGFSYSKSNGRG [MYOZ1], the protein stability index under setting [1] was found to be 4.3 ± 0.21 and the protein stability index under setting [2] is 4.4 ± 0.35.
Turning to LPYTDGLSWELLDSHLGGNARGMG [CTBP1-DT], the protein stability index runs as follows: under setting [1], 2.98 ± 0.28; under setting [2], 3.29 ± 0.14.
LQGAASHVPEGFDPTGPAGLGRPT [EHMT1]: the protein stability index stood at 4.54 ± 0.2 under setting [1] and 4.58 ± 0.14 under setting [2].
Taken in the same sequence, the figures for LQGVPERLLGTAGTEEKKKLIRDF [VTI1B] were 4.25 ± 0.44 and 4.63 ± 0.2.
On to LQLLLGCKARMERDGYGMTPLLAA [FEM1A], for which the protein stability index stood at 2.38 ± 0.5 under setting [1] and 2.24 ± 0.29 under setting [2].
In turn, LQNKVPLLGSSTACIVVLDRTSHR [PPTC7] had a protein stability index under setting [1] of 2.14 ± 0.16 and a protein stability index under setting [2] of 2.32 ± 0.33.
Turning to LQRDFLKQRPTKLKSLIRLVKHWY [OAS1], the protein stability index by setting is: under setting [1], 3.3 ± 0.41; under setting [2], 3.15 ± 0.23.
Turning to LRDRAERIASRAIDNAADLLIFGK [SNX8], the protein stability index is, setting by setting: under setting [1], 3.28 ± 0.17; under setting [2], 3.6 ± 0.31.
As for LRFTSGLVVALDVDATLEHVQDPQ [INTS4], the protein stability index runs as follows: under setting [1], 2.09 ± 0.25; under setting [2], 2.43 ± 0.22.
Consider LRGQVGGEINVEMDAAPGVDLSRI [KRT17], for which the protein stability index reads like this: under setting [1], 3.97 ± 0.15; under setting [2], 3.92 ± 0.16.
As to LRLHDNPALKECIQGADTIRCVYI [CRY1], the protein stability index runs as follows: under setting [1], 2.6 ± 0.38; under setting [2], 2.41 ± 0.3.
With LRRPRPVQRTQSVPVRRPARRRQS [RASAL3], the protein stability index is 4.99 ± 0.29 under setting [1] and 5.19 ± 0.35 under setting [2].
Regarding LRSFCAWQRGLNTPEDSDPDHFDT [ADAMTS4], the protein stability index under setting [1] amounted to 4.12 ± 0.27 and the protein stability index under setting [2] came to 4.24 ± 0.2.
For LSALDSKANNLSSLSKKYRQDAKY [SEC22B], the protein stability index runs as follows: under setting [1], 3.87 ± 0.19; under setting [2], 3.98 ± 0.3.
Turning to LSETADPFFVLNSDVICDFPFQAM [GMPPB], the protein stability index reads like this: under setting [1], 2.44 ± 0.26; under setting [2], 2.6 ± 0.35.
For the sequence LSLFIPESPRWLYSQGRLSEAEEA [SLC22A15], the protein stability index under setting [1] was 3.19 ± 0.35 and the protein stability index under setting [2] turned out to be 3.44 ± 0.35.
Regarding LSLYQLSLERGTALFAQVQRGALP [RSAD1], the protein stability index was 2.23 ± 0.36 under setting [1] and 2.32 ± 0.44 under setting [2].
In the case of LSSVEAYNIRTDSWTTVTSMTTPR [KLHL12], the protein stability index is 2.79 ± 0.31 under setting [1] and 3.23 ± 0.37 under setting [2].
In the case of LTAFICFLVFILNAGLVWFFPWRE [MFSD9], the protein stability index by setting is: under setting [1], 2.23 ± 0.42; under setting [2], 2.11 ± 0.51.
Sequence LTERLKVLEAKMTMLTVIEQPVPP [EMID1] gave a protein stability index under setting [1] of 3.09 ± 0.46 and a protein stability index under setting [2] of 3.32 ± 0.16.
For the sequence LTLQVYREQADSCREQLDIMNDLS [TRIM14], the protein stability index by setting is: under setting [1], 2.99 ± 0.24; under setting [2], 2.95 ± 0.1.
Consider LTVVSFYQVAALQGDLASLRAELQ [TNFSF13B], for which the protein stability index came to 2.77 ± 0.7 under setting [1] and 2.63 ± 0.68 under setting [2].
Taken in the same sequence, the figures for LVLAIPLLLILVSYVHILSAILQF [OR10K2] were 3.37 ± 0.14 and 3.17 ± 0.28.
In turn, LVQVTLLDTVELATYCVRTFALYK [PTPRD] had a protein stability index under setting [1] of 3.1 ± 0.49 and a protein stability index under setting [2] of 2.97 ± 0.81.
As to LWEKVMPSRYAAIYNGGVEAVSTL [SLC19A2], the protein stability index runs as follows: under setting [1], 2.19 ± 0.22; under setting [2], 2.07 ± 0.29.
Regarding LWFYNTSLKFFLNKPMLADVVFEI [RHOBTB3], the protein stability index came to 2.82 ± 0.32 under setting [1] and 3.04 ± 1.1 under setting [2].
Taken in the same sequence, the figures for LYELASLKRAFEAANLPALVLKIM [NEK8] were 2.33 ± 0.36 and 2.12 ± 0.34.
For LYLVGFLDLFGVSMVVPLLSLHVK [MFSD9], the protein stability index is, setting by setting: under setting [1], 3.61 ± 0.17; under setting [2], 3.19 ± 0.33.
As to LYRQHQAQIDQYVGLVTNQLSHIK [RTN2], the protein stability index by setting is: under setting [1], 2.08 ± 0.34; under setting [2], 2.05 ± 0.4.
In turn, LYTPSNEHFGIVPLEAMYMQCPVI [ALG2] came in with a protein stability index under setting [1] of 2.28 ± 0.098 and a protein stability index under setting [2] of 2.39 ± 0.35.
Consider MAAMFNGNYMEAKSVLIPVYGVSK [RHOBTB3], for which the protein stability index came to 2.27 ± 0.35 under setting [1] and 2.12 ± 0.33 under setting [2].
As to MADQDPAGISPLQQMVASGTGAVV [SLC25A39], the protein stability index is, setting by setting: under setting [1], 4.52 ± 0.22; under setting [2], 4.42 ± 0.13.
As for MAEAEGVPTTPGPASGSTFRGRRD [RETREG3], the protein stability index was 5.12 ± 0.39 under setting [1] and 5.22 ± 0.14 under setting [2].
Regarding MAGGKAGKDSGKAKAKAVSRSQRA [H2AZ2], the protein stability index amounted to 4.73 ± 0.24 under setting [1] and 5.03 ± 0.25 under setting [2].
Consider MAGTNALLMLENFIDGKFLPCSSY [ALDH8A1], for which the protein stability index reads like this: under setting [1], 2.19 ± 0.35; under setting [2], 2.12 ± 0.26.
MAHSKTRTNDGKITYPPGVKEISD [PDS5B]: the protein stability index under setting [1] stood at 4.59 ± 0.17 and the protein stability index under setting [2] is 4.61 ± 0.21.
Turning to MALQLGRLSSGPCWLVARGGCGGP [CPOX], the protein stability index was determined as 2.36 ± 0.38 under setting [1] and 2.44 ± 0.38 under setting [2].
In the same order, the values of MDGSGEQPRGGVSSRIEQGEWGGR are 4.58 ± 0.43 and 4.58 ± 0.17.
For the sequence MDRKTRFIIHGFIDKGDESWVTDM [PNLIPRP1], the protein stability index is, setting by setting: under setting [1], 2.48 ± 0.66; under setting [2], 2.51 ± 0.19.
MDTQFTIRARELQNIYKCIMLKNI [IQUB] yielded a protein stability index under setting [1] of 2.27 ± 0.24 and a protein stability index under setting [2] of 2.37 ± 0.3.
Consider MEEVCGGEKPYLSPDILEEKHCEF [ATL3], for which the protein stability index turned out to be 5.15 ± 0.29 under setting [1] and 5.01 ± 0.14 under setting [2].
As to MEEVISPRQVSYTPQHHEKQYAMQ [IQUB], the protein stability index reads like this: under setting [1], 4.38 ± 0.15; under setting [2], 4.31 ± 0.29.
As to MENNHTVAITILQDDHDHKVQELM [MTUS2], the protein stability index by setting is: under setting [1], 4.42 ± 0.26; under setting [2], 4.34 ± 0.098.
For MEPATAPRPDMAPELTPEEEQATK [PTPN9], the protein stability index was 5.71 ± 0.097 under setting [1] and 5.08 ± 0.48 under setting [2].
As for MFSVLSYGRLVARAVLGGLSQTDP [PPTC7], the protein stability index worked out at 2.01 ± 0.74 under setting [1] and 2.85 ± 1.3 under setting [2].
MHTNYLSACSFTNSDMQILTASGD [GNB5] showed a protein stability index under setting [1] of 2.99 ± 0.22 and a protein stability index under setting [2] of 3.27 ± 0.26.
In the case of MLFFLPPGQHLSDYSQLNESTTKE [FBXO34], the protein stability index is, setting by setting: under setting [1], 2.6 ± 0.25; under setting [2], 2.61 ± 0.24.
Take MLRQLLLAALCLAGPPAPARACQL [CCDC3]: the protein stability index runs as follows: under setting [1], 3.47 ± 0.045; under setting [2], 2.76 ± 1.1.
On to MPDTFNSRSPSVEGSLWAVGTESQ [PXN], for which the protein stability index came out at 4.31 ± 0.16 under setting [1] and 4.38 ± 0.12 under setting [2].
MQPTLLLSLLGAVGLAAVNSMPVD [CHGB] had a protein stability index under setting [1] of 2.85 ± 0.68 and a protein stability index under setting [2] of 2.94 ± 0.69.
Turning to MSAALFSLDGPARGAPWPAEPAPF [CEBPD], the protein stability index reads like this: under setting [1], 2.95 ± 0.14; under setting [2], 3.21 ± 0.18.
As for MSLRLQSSSASYGGGFGGGSCQLG [KRT13], the protein stability index runs as follows: under setting [1], 2.54 ± 0.11; under setting [2], 2.49 ± 0.11.
As to MTLAYDNGINLFDTAEVYAAGKAE [KCNAB2], the protein stability index reads like this: under setting [1], 3.54 ± 0.29; under setting [2], 3.8 ± 0.34.
For MTTSIRQFTSSSSIKGSSGLGGGS [KRT17], the protein stability index came out at 3.58 ± 0.11 under setting [1] and 3.39 ± 0.43 under setting [2].
On to MWLLVSVILISRISSVGGEAMFCD [CFHR2], for which the protein stability index is 3.35 ± 0.25 under setting [1] and 3.08 ± 0.52 under setting [2].
NAGSYIPSYTSWYPSAHQEAMQQP [DLX1] gave a protein stability index under setting [1] of 2.76 ± 0.16 and a protein stability index under setting [2] of 2.84 ± 0.32.
Turning to NAKTEQGPTGVTMTSNPITWGQIK [CDK11A], the protein stability index under setting [1] came to 4.19 ± 0.16 and the protein stability index under setting [2] was 4.12 ± 0.24.
NALLSKRLLALTSSDLGCQPSRT [TMEM192] displayed a protein stability index (treatment: DMSO, c terminus: native) of 2.52 ± 0.72 and a protein stability index (treatment: MLN4924 1 uM, 8 h, c terminus: native) of 2.61 ± 0.3.
